6 sequences from publication PMC9736018 can be followed below.

In the data set the target is T1, PA3973-His6 (Pseudomonas aeruginosa PAO1161) (UniProt Q9HX43).
T1 sequence: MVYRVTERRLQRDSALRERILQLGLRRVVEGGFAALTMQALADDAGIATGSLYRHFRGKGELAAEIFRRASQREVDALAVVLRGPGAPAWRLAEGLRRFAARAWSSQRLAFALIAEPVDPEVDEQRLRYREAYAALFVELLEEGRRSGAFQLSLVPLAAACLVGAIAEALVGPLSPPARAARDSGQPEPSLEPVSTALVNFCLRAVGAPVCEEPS
Put plainly: EMSA. The settings on record: 10 mM Tris-HCl pH 8.5, 10 mM MgCl2, 100 mM KCl, 0.1 mg/mL BSA; ~100 ng DNA plus ~300 ng NS competitor in 20 uL; 23 C, 30 min; 1.5% agarose, 0.5x TBE, 4 C ….

With “GAGAATTCGCATGCCAATGGCGGCGAGGAAAGCGCCTGCGGCTGGTGCCGTGACAAGTGGGGCATCTCCTGGCAGATCACCCCGCGCGTACTCAGCGAAGCCATCGCCAGCCCCGACCGCGCGGCGGCCAGGCGCGCCTTCGAGGCGATGATGACGATGGGCAGGATCGATATCGCCACCATAGAGAAGGCCTTCAAGGGCTGAACGCCCCAACGCCTTGCAAAGGAGTCACGAAGGATCCGC (double strand) [PA2722p]”, the binding result was “binds”.

On to “GAGGATCCGGGGCGGGCTCCGGAGGGTGTTCAGCTCCTAGCATAGCGCCCTCGCCTTGCGCCGTTCAGACCTTCGCGCAGCGCCCCTCGCGGCCGCGCGCCAGTTCCCTGTTGTCCTGGTCGTAGAGCTTCGCCCAGGGACGGAAGCCGATGTGCCCGGCCTCCAGGCGGTAGCGCTGGCCGGCGCTGAAGTCCTTGAACTTGAGGTTGAGCTGGCAATCGCGCCAGAGCGGGCTGTCCACGGGGCCGGCATGCGAATTCGC (double strand) [PA0061p]”, for which the binding result was “binds”.

Regarding “GAGGATCCGTGGGACTCCTTGGGTCGGGCCGGTGGCGAATAGCCAGGGGGACGTCGGGCGCACAAGGTACTGCCAGAAAAACGCTAATGCAAATAATTATCAAATGGATTCAGATATGCGTTTTGTGGCAAAGTTCACCTGTTTTTGCGCGTAGCGCGACCGAACCGGATATGCCCGAGGAACCGTCGATGAGCAGCACTCCCAGCCTTTCCCATTCCCCTGCCGAGCGCATGCGAATTCGC (double strand) [PA4710p]”, the binding result was “binds more weakly”.

“GCGAATTCGCATGCCACCACGGTTGATCCATAGGCTTCGGTCCGCGCTGCGGTGGCGCGGGCGGCGCCCATGATACCGATTCCCCGGGGCGGTGGGGCGCCGCGGAAGGGACGGGCGTAGGAGATTTCATATTTCGCAATGAGGAATCTATTCCCCATTGAGGAATGTTCTGGTGGCGTGATAGCCTGAATGGAAAAGAGAGTCATTCCCATTTGGAGAAGATCCTGGATCCGC (double strand) [PA4156p]”: the binding entry is on record as “binds more weakly”.

For “GCGAATTCGCATGCGATGGGCGGGAATTGTTGGTCGATTTATGACTTGTAGTTTCTCTGTCGTATGCCTTCAGAACTTGTTGAAGGCTTTTCGGCTCGATTGCACAATGCCGCGCCAAGGTTCGTTCGCGAATCGCGGTATGTGAGCTAGACCTCCGCAGCCGGTGCGCCATCCGCAGTGCCCCGGACTACTCGACAATCACGCAGGAGATTCGTGAGGATCCGC (double strand) [PA0195p]”, the binding entry is listed as “binds”.

As for “GCGAATTCGCATGCGGCGCTGGAGATTCCCGGCGAGGGCGCGGTGGGCATGTGCTGGCGCGACGAACCGCACCGCGACCGTGCCAGCGAAGACCTGCTGGCCTGCCTGCGCGAAGGCGCGGCGGCCGAGTAGGGCGCCGGCCGGCGGGTGCTATTGCAAAAAGGCCGCGGCTTCTCGACAATGCGATTCATTATCATTCATGTGTCGCCCCGACTTTCCCATGGGATCCGC (double strand) [PA2468p]”, the binding entry is on record as “binds more weakly”.
